Experimental data: paper PMC12132311 (bioRxiv, 2025)
Several values for one entry are separate records, joined by “and”; a condition that tells them apart may be missing. Identical values can stand only once. No end group written: not given here. *: point of attachment. FITC = O=C1OC2(c3ccc(O)cc3Oc3cc(O)ccc32)c2ccc(NC(=S)*)cc21; 5FAM = O=C1OC2(c3ccc(O)cc3Oc3cc(O)ccc32)c2ccc(C(=O)*)cc21; Ahx = NCCCCCC(=O)O

T1: CHIP-optimized peptide CHIPopt (FITC-Ahx-LWWPD)
T1 peptide: {FITC-Ahx}-LWWPD

T2: FAM-labeled Hsp70 C-terminal peptide (5FAM-Ahx-SSGPTIEEVD)
T2 peptide: {5FAM-Ahx}-SSGPTIEEVD

T3: Carboxyl terminus of Hsc70-interacting protein (CHIP/STUB1), human, WT, full length (human), Q9UNE7
T3 chain: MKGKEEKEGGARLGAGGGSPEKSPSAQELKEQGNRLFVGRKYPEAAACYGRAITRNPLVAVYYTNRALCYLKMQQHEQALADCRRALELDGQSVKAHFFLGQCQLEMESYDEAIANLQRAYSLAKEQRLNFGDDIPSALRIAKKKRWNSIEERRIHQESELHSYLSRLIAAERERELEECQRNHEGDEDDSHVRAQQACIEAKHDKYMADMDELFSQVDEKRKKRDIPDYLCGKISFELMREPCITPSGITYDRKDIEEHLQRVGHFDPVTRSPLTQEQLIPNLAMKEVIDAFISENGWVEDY


Legend:
[1] = biological target: Carboxyl terminus of Hsc70-interacting protein (CHIP/STUB1), human, WT, full length (human, UniProt Q9UNE7); assay: cryo-EM structure
Biotinylated CHIP = Biotinylated CHIP (Homo sapiens, UniProt Q9UNE7, biotin (site and way of biotinylation not stated)); assay: BLI
[2] = biological target: T1, CHIP-optimized peptide CHIPopt …; assay: fluorescence polarisation
[3] = biological target: T2, FAM-labeled Hsp70 C-terminal peptide …; assay: fluorescence polarisation
[4] = biological target: T3, Carboxyl terminus of Hsc70-interacting …; assay: cryo-EM structure; conditions: remark: other sources report otherwise
[5] = biological target: T1, CHIP-optimized peptide CHIPopt …; assay: fluorescence polarisation
[6] = biological target: T2, FAM-labeled Hsp70 C-terminal peptide …; assay: fluorescence polarisation

Kd (Biotinylated CHIP)	apparent Kd with Fab 2D2 present [2]	apparent Kd with Fab 2D2 present [3]	stoichiometry N [4]	apparent Kd with Fab H1 present [5]	apparent Kd with Fab H1 present [6]	Binder	stoichiometry N [1]
40 nM	–	–	–	–	–	Fab 2D2 (CHIP-targeting fragment antigen-binding antibody) (Fab, V domains shown) VH: QVQLQQSGPGLMKGGQTLSLTCAISGDSVSSNSAAWNWIRQSPSRGLEWLGRTYYRSKWYNEYAVSVKSRITINPDTSKNQFSLQLNSVTPEDTAVYYCARAVAASFDYWGQGTLVTVSS VL: ETTLTQSPGTLSLSPGERATLSCRASQSVSSTFLAWYQQKPGQAPRLLIYGASRRATGIPDRFSGSGSGTDFTLTISRLEPEDFAVYYCQRYGATYTFGQGTKLEIK	1 Fab per CHIP dimer (printed as 2:1 CHIP:Fab)
1100 nM	–	–	–	–	–	Fab H1 (CHIP-targeting fragment antigen-binding antibody) (Fab, V domains shown) VH: VQLVQSGSEVKKPGASVKVSCKASGYTFTNYGISWVRQAPGQGLEWMGWISAYNGNTNYAQNFQGRVTMTTDTSTKTAYMELRSLRSDDTAVYFCARSGYSGYDNNLGAFDIWGQGTMVTVSS VL: SVVTQPPSVSAAPGQKVTISCSGTSSNIGNSYVTWYQQLPGAAPKLLIYDNNKRPSGIPDRFSGSKSGTSATLGITGLQTGDEADYYCATWDSSLTAGRVFGGGTRLTVL	1 Fab per CHIP dimer (printed as 2:1 CHIP:Fab) and 2 Fab per CHIP dimer (printed as 2:2 CHIP:Fab)
–	0.016 nM	0.26 µM	2	0.01 nM	0.14 µM	Carboxyl terminus of Hsc70-interacting protein (CHIP/STUB1), human, WT, full length (enzyme) MKGKEEKEGGARLGAGGGSPEKSPSAQELKEQGNRLFVGRKYPEAAACYGRAITRNPLVAVYYTNRALCYLKMQQHEQALADCRRALELDGQSVKAHFFLGQCQLEMESYDEAIANLQRAYSLAKEQRLNFGDDIPSALRIAKKKRWNSIEERRIHQESELHSYLSRLIAAERERELEECQRNHEGDEDDSHVRAQQACIEAKHDKYMADMDELFSQVDEKRKKRDIPDYLCGKISFELMREPCITPSGITYDRKDIEEHLQRVGHFDPVTRSPLTQEQLIPNLAMKEVIDAFISENGWVEDY	–
